Experimental data taken from paper PMC9482650, “Quantitative fragmentomics allow affinity mapping of interactomes” (Nature Communications, 2022).

T1: MPDZ_5, O75970
T1 sequence (O75970 695-796, limits assumed, looked up): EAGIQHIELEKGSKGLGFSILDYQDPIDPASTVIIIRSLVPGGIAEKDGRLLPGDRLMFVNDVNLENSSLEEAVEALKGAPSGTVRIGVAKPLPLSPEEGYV

T2: TX1BP3, O14907
T2 sequence (O14907 10-122, limits assumed, looked up): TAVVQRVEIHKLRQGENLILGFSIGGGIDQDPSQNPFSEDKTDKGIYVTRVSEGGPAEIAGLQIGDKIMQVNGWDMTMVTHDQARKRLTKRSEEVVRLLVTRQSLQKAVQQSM

T3: DLG3_1, Q92796
T3 sequence (Q92796 125-227, limits assumed, looked up): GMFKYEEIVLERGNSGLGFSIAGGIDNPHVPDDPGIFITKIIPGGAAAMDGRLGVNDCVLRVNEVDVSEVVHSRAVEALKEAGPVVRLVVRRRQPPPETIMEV

T4: NHERF3_4, Q5T2W1
T4 sequence (Q5T2W1 373-468, limits assumed, looked up): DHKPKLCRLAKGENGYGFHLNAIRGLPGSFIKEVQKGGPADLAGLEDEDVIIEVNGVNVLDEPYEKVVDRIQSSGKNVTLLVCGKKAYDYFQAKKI

T5: LRRC7, Q96NW7
T5 sequence (Q96NW7 1440-1537, limits assumed, looked up): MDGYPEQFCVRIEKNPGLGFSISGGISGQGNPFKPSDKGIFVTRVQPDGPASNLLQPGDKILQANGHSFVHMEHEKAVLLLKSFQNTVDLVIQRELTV

T6: ARHGAP21, Q5T5U3
T6 sequence (Q5T5U3 45-169, limits assumed, looked up): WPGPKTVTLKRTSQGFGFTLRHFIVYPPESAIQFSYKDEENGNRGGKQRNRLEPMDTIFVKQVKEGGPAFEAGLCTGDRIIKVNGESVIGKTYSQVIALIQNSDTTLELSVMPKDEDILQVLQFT

T7: NHERF3_1, Q5T2W1
T7 sequence (Q5T2W1 4-100, limits assumed, looked up): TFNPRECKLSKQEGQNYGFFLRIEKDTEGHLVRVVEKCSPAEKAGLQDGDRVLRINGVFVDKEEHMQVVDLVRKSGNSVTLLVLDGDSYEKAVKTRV

T8: MPDZ_12, O75970
T8 sequence (O75970 1857-1958, limits assumed, looked up): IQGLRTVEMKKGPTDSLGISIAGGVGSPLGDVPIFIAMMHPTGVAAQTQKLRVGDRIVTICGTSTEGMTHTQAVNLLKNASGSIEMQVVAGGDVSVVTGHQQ

T9: PDZRN3_1, Q9UPQ7
T9 sequence (Q9UPQ7 244-349, limits assumed, looked up): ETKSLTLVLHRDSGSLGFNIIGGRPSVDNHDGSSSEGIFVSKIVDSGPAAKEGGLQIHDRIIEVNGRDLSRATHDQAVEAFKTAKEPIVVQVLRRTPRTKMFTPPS

T10: APBA2_2, Q99767
T10 sequence (Q99767 654-744, limits assumed, looked up): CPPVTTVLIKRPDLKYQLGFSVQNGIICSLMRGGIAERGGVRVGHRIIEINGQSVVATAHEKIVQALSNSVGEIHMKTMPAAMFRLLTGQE

T11: MPDZ_10, O75970
T11 sequence (O75970 1624-1722, limits assumed, looked up): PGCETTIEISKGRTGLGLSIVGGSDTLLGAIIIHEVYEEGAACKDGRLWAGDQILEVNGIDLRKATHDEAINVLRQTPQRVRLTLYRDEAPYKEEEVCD

T12: LIN7A, O14910
T12 sequence (O14910 103-200, limits assumed, looked up): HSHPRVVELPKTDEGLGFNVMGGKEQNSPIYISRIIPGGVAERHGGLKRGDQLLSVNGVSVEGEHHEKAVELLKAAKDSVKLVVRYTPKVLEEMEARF

T13: DFNB31_2, Q9P202
T13 sequence (Q9P202 274-371, limits assumed, looked up): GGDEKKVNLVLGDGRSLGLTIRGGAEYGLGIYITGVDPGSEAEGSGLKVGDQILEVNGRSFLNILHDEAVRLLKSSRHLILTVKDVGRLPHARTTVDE


target: TJP1_2, Q07157; experiment: holdup assay; design: key: below the threshold = too weak to quantify, mostly under pKd 3.1 to 4; conditions: plain residues with an end cap or a label only (N-terminal biotin on a linker: ado-ado)
Sequence (Q07157 181-274): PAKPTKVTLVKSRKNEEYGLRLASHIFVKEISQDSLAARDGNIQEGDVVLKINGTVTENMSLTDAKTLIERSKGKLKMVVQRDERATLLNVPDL

Row | Binder | pKd
1 | EKKTLIGIKL [GOT1L1, Q8NHS2] | below the threshold
2 | EALLQMESVA [CAVIN3, Q969G5] | below the threshold

target: IL16_3, Q14005; experiment: holdup assay; design: key: below the threshold = too weak to quantify, mostly under pKd 3.1 to 4; conditions: plain residues with an end cap or a label only (N-terminal biotin on a linker: ado-ado)
Sequence (Q14005 1107-1207): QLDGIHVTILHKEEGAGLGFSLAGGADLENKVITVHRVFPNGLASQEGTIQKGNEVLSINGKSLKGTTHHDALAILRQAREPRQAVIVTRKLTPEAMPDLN

Row | Binder | pKd
3 | EKKTLIGIKL [GOT1L1, Q8NHS2] | below the threshold
4 | EALLQMESVA [CAVIN3, Q969G5] | below the threshold

target: T1, MPDZ_5, O75970; experiment: holdup assay; design: key: below the threshold = too weak to quantify, mostly under pKd 3.1 to 4; conditions: plain residues with an end cap or a label only (N-terminal biotin on a linker: ado-ado)

Row | Binder | pKd
5 | EKKTLIGIKL [GOT1L1, Q8NHS2] | below the threshold
6 | EALLQMESVA [CAVIN3, Q969G5] | below the threshold

target: MAGI2_5, Q86UL8; experiment: holdup assay; design: key: below the threshold = too weak to quantify, mostly under pKd 3.1 to 4; conditions: plain residues with an end cap or a label only (N-terminal biotin on a linker: ado-ado)
Sequence (Q86UL8 915-1017): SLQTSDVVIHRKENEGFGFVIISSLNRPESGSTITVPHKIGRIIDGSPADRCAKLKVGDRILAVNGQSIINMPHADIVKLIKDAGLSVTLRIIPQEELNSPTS

Row | Binder | pKd
7 | EKKTLIGIKL [GOT1L1, Q8NHS2] | below the threshold
8 | EALLQMESVA [CAVIN3, Q969G5] | below the threshold

target: MAST1, Q9Y2H9; experiment: holdup assay; design: key: below the threshold = too weak to quantify, mostly under pKd 3.1 to 4; conditions: plain residues with an end cap or a label only (N-terminal biotin on a linker: ado-ado)
Sequence (Q9Y2H9 962-1065): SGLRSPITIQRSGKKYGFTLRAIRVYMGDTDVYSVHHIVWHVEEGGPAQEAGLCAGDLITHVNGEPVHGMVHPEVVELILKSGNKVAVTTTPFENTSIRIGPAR

Row | Binder | pKd
9 | EKKTLIGIKL [GOT1L1, Q8NHS2] | 3.95
10 | EALLQMESVA [CAVIN3, Q969G5] | 3.86

target: T2, TX1BP3, O14907; experiment: holdup assay; design: key: below the threshold = too weak to quantify, mostly under pKd 3.1 to 4; conditions: plain residues with an end cap or a label only (N-terminal biotin on a linker: ado-ado)

Row | Binder | pKd
11 | EKKTLIGIKL [GOT1L1, Q8NHS2] | below the threshold
12 | EALLQMESVA [CAVIN3, Q969G5] | below the threshold

target: PICK1, Q9NRD5; experiment: holdup assay; design: key: below the threshold = too weak to quantify, mostly under pKd 3.1 to 4; conditions: plain residues with an end cap or a label only (N-terminal biotin on a linker: ado-ado)
Sequence (Q9NRD5 17-115): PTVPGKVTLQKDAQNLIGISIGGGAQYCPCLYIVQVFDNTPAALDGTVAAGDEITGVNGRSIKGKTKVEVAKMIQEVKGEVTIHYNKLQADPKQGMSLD

Row | Binder | pKd
13 | EKKTLIGIKL [GOT1L1, Q8NHS2] | 4.14
14 | EALLQMESVA [CAVIN3, Q969G5] | below the threshold

target: DLG1_2, Q12959; experiment: holdup assay; design: key: below the threshold = too weak to quantify, mostly under pKd 3.1 to 4; conditions: plain residues with an end cap or a label only (N-terminal biotin on a linker: ado-ado)
Sequence (Q12959 314-412): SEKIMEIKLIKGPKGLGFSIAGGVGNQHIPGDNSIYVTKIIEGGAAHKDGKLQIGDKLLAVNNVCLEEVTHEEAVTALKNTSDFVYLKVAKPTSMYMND

Row | Binder | pKd
15 | EKKTLIGIKL [GOT1L1, Q8NHS2] | below the threshold
16 | EALLQMESVA [CAVIN3, Q969G5] | below the threshold

target: DLG2_2, Q15700; experiment: holdup assay; design: key: below the threshold = too weak to quantify, mostly under pKd 3.1 to 4; conditions: plain residues with an end cap or a label only (N-terminal biotin on a linker: ado-ado)

Row | Binder | pKd
17 | EKKTLIGIKL [GOT1L1, Q8NHS2] | below the threshold
18 | EALLQMESVA [CAVIN3, Q969G5] | below the threshold

target: T3, DLG3_1, Q92796; experiment: holdup assay; design: key: below the threshold = too weak to quantify, mostly under pKd 3.1 to 4; conditions: plain residues with an end cap or a label only (N-terminal biotin on a linker: ado-ado)

Row | Binder | pKd
19 | EKKTLIGIKL [GOT1L1, Q8NHS2] | below the threshold
20 | EALLQMESVA [CAVIN3, Q969G5] | below the threshold

target: T4, NHERF3_4, Q5T2W1; experiment: holdup assay; design: key: below the threshold = too weak to quantify, mostly under pKd 3.1 to 4; conditions: plain residues with an end cap or a label only (N-terminal biotin on a linker: ado-ado)

Row | Binder | pKd
21 | EKKTLIGIKL [GOT1L1, Q8NHS2] | 4.74
22 | EALLQMESVA [CAVIN3, Q969G5] | below the threshold

target: T5, LRRC7, Q96NW7; experiment: holdup assay; design: key: below the threshold = too weak to quantify, mostly under pKd 3.1 to 4; conditions: plain residues with an end cap or a label only (N-terminal biotin on a linker: ado-ado)

Row | Binder | pKd
23 | EKKTLIGIKL [GOT1L1, Q8NHS2] | below the threshold
24 | EALLQMESVA [CAVIN3, Q969G5] | below the threshold

target: PTPN3, P26045; experiment: holdup assay; design: key: below the threshold = too weak to quantify, mostly under pKd 3.1 to 4; conditions: plain residues with an end cap or a label only (N-terminal biotin on a linker: ado-ado)
Sequence (P26045 505-587): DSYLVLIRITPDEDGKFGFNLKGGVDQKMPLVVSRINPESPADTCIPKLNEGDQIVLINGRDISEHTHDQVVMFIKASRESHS

Row | Binder | pKd
25 | EKKTLIGIKL [GOT1L1, Q8NHS2] | below the threshold
26 | EALLQMESVA [CAVIN3, Q969G5] | below the threshold

target: T6, ARHGAP21, Q5T5U3; experiment: holdup assay; design: key: below the threshold = too weak to quantify, mostly under pKd 3.1 to 4; conditions: plain residues with an end cap or a label only (N-terminal biotin on a linker: ado-ado)

Row | Binder | pKd
27 | EKKTLIGIKL [GOT1L1, Q8NHS2] | 4.09
28 | EALLQMESVA [CAVIN3, Q969G5] | below the threshold

target: T7, NHERF3_1, Q5T2W1; experiment: holdup assay; design: key: below the threshold = too weak to quantify, mostly under pKd 3.1 to 4; conditions: plain residues with an end cap or a label only (N-terminal biotin on a linker: ado-ado)

Row | Binder | pKd
29 | EKKTLIGIKL [GOT1L1, Q8NHS2] | 4.78
30 | EALLQMESVA [CAVIN3, Q969G5] | below the threshold

target: NOS1, P29475; experiment: holdup assay; design: key: below the threshold = too weak to quantify, mostly under pKd 3.1 to 4; conditions: plain residues with an end cap or a label only (N-terminal biotin on a linker: ado-ado)
Sequence (P29475 9-101): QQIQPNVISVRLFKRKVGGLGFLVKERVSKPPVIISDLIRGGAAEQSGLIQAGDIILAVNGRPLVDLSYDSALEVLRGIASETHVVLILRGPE

Row | Binder | pKd
31 | EKKTLIGIKL [GOT1L1, Q8NHS2] | 3.56
32 | EALLQMESVA [CAVIN3, Q969G5] | below the threshold

target: T8, MPDZ_12, O75970; experiment: holdup assay; design: key: below the threshold = too weak to quantify, mostly under pKd 3.1 to 4; conditions: plain residues with an end cap or a label only (N-terminal biotin on a linker: ado-ado)

Row | Binder | pKd
33 | EKKTLIGIKL [GOT1L1, Q8NHS2] | below the threshold
34 | EALLQMESVA [CAVIN3, Q969G5] | below the threshold

target: HTRA1, Q92743; experiment: holdup assay; design: key: below the threshold = too weak to quantify, mostly under pKd 3.1 to 4; conditions: plain residues with an end cap or a label only (N-terminal biotin on a linker: ado-ado)
Sequence (Q92743 360-477): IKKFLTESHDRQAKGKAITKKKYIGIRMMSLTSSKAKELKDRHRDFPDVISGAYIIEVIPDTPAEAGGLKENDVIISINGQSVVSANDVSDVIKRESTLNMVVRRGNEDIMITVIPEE

Row | Binder | pKd
35 | EKKTLIGIKL [GOT1L1, Q8NHS2] | 4.48
36 | EALLQMESVA [CAVIN3, Q969G5] | 3.93

target: T9, PDZRN3_1, Q9UPQ7; experiment: holdup assay; design: key: below the threshold = too weak to quantify, mostly under pKd 3.1 to 4; conditions: plain residues with an end cap or a label only (N-terminal biotin on a linker: ado-ado)

Row | Binder | pKd
37 | EKKTLIGIKL [GOT1L1, Q8NHS2] | below the threshold
38 | EALLQMESVA [CAVIN3, Q969G5] | below the threshold

target: T10, APBA2_2, Q99767; experiment: holdup assay; design: key: below the threshold = too weak to quantify, mostly under pKd 3.1 to 4; conditions: plain residues with an end cap or a label only (N-terminal biotin on a linker: ado-ado)

Row | Binder | pKd
39 | EKKTLIGIKL [GOT1L1, Q8NHS2] | below the threshold
40 | EALLQMESVA [CAVIN3, Q969G5] | 3.61

target: DLG2_3, Q15700; experiment: holdup assay; design: key: below the threshold = too weak to quantify, mostly under pKd 3.1 to 4; conditions: plain residues with an end cap or a label only (N-terminal biotin on a linker: ado-ado)

Row | Binder | pKd
41 | EKKTLIGIKL [GOT1L1, Q8NHS2] | below the threshold
42 | EALLQMESVA [CAVIN3, Q969G5] | 3.84

target: T11, MPDZ_10, O75970; experiment: holdup assay; design: key: below the threshold = too weak to quantify, mostly under pKd 3.1 to 4; conditions: plain residues with an end cap or a label only (N-terminal biotin on a linker: ado-ado)

Row | Binder | pKd
43 | EKKTLIGIKL [GOT1L1, Q8NHS2] | below the threshold
44 | EALLQMESVA [CAVIN3, Q969G5] | below the threshold

target: T12, LIN7A, O14910; experiment: holdup assay; design: key: below the threshold = too weak to quantify, mostly under pKd 3.1 to 4; conditions: plain residues with an end cap or a label only (N-terminal biotin on a linker: ado-ado)

Row | Binder | pKd
45 | EKKTLIGIKL [GOT1L1, Q8NHS2] | below the threshold
46 | EALLQMESVA [CAVIN3, Q969G5] | below the threshold

target: T13, DFNB31_2, Q9P202; experiment: holdup assay; design: key: below the threshold = too weak to quantify, mostly under pKd 3.1 to 4; conditions: plain residues with an end cap or a label only (N-terminal biotin on a linker: ado-ado)

Row | Binder | pKd
47 | EKKTLIGIKL [GOT1L1, Q8NHS2] | below the threshold
48 | EALLQMESVA [CAVIN3, Q969G5] | below the threshold
